Data: patent US20040267001A1, “Genes encoding baeyer-villiger monooxygenases” (priority 2001, published 2004)

Test: Conversion of cyclohexanone to caprolactone by E. coli clones expressing Rhodococcus erythropolis AN12 monooxygenases, GC-MS detection
Format: cell-based, Escherichia coli
Settings: 500 mg/L cyclohexanone, 0.1 mM IPTG, overnight at 24° C., GC-MS of ethylacetate extract
Method: Following amplification, the gene fragments were cloned into pTrcHis-TOPO TA vectors with either an N-terminal tail or C-terminal tail, as provided by the vector sequence. These vectors were transformed into E. coli, with transformants grown in Luria-Bertani broth supplemented with ampicillin (100 ug/ml).
The chnB monooxygenase activity of each expressed enzyme from Example 9 was tested for activity according to its ability to convert cyclohexanone to caprolactone.
Clones containing the full length monooxygenase genes were transferred from LB agar plate to 5 mL of M63 minimal media (GIBCO) containing 10 mM glycerol, 50 ug/mL ampicillin, 0.1 mM IPTG, and 500 mg/L cyclohexanone. In addition to the clones containing full length monooxygenases, a plasmid without an insert and a “no cell” control were also assayed. The encoded monooxygenase sequences were expressed upon addition of IPTG to the culture media. The cultures were incubated overnight at room temperature (24° C.). Samples (1.25 mL) for analysis were taken immediately after inoculation and after overnight incubation; cells were removed by centrifugation (4° C., 13,000 rpm).
Caprolactone formed by the action of the cloned monooxygenase was extracted from the aqueous phase with ethylacetate (1.0 ml aqueous/0.5 mL ethylacetate). Caprolactone was detected by gas chromotagraphy mass spectrometry (GC-MS) analysis, using an Agilent 6890 Gas chromatograph system.
The analysis of the ethylacetate phase was performed by injecting 1 uL of the ethyl acetate phase into the GC. The inlet temperature was 115° C. and the column temperature profile was 50° C. for 4 min and ramped to 250° C. at 20° C./min, for a total run time of 14 min. The compounds were separated with an Hewlet Packard HP-5MS (5% phenyl Methyl Siloxane) column (30 m length, 250 um diameter, and 0.25 um film thickness). The mass spectrometer was run in Electron Ionization mode. The background mass spectra was subtracted from the spectra at the retention time of caprolactone (9.857 min). Presence of caprolactone was confirmed by comparison of the test reactions to an authentic standard obtained from Aldrich Chemical Company (St. Louis, Mo.).
Results of these assays are shown below in Table 7, in terms of the presence or absence of detectable caprolactone formation according to the activity of each expressed BV monooxygenase enzyme.

| Molecule | Formation of Caprolactone (ability to convert cyclohexanone to caprolactone) |
| --- | --- |
| ORF 9: Rhodococcus erythropolis AN12 ORF 9 chnB monooxygenase, protein SEQ ID NO:24, expressed in E. coli (protein, Rhodococcus erythropolis AN12) MVDIDPTSGPSAGDEETRTRRTRVVVIGAGFGGIGTAVRLKQSGIDDFVVLERAAEPGGTWQVNTYPGAQCDIPSILYSFSFAPNPNWTRLYPLQPEIYDYLRDCVHRFGLAGHFHCNQDVTEASWDEQAQIWRVHTAETVWEAQFLVAATGPFSAPATPDLPGLESFRGQMFHTADWNHDHDLRGERIAVVGTGASAVQIIPRLQPLADTLTVFQRTPTWILPHPDQPMTGWPSALFERVPLTQRLARKGLDLLQEALVPGFVYKPSLLKGLAALGRAHLRRQVRDPELRAKLLPHYAFGCKRPTFSNTYYPALASPNVEVVTDGIVEVQERGVLTADGAFREVDTIVMGTGFRMGDNPSFDTIRGQDGRSLAQTWNGSAEAFLGTTISGFPNFFMILGPNSVVYTSQVVTIEAQVEYIVSCILQMDERGIGSIDVRADVQREFVRATDRRLATSVWNAGGCSSYYLVDGGRNYTFYPGFNRSFRARTKRADLAHYAQVQPVSSAALTTARETVRSR | Detected |
| ORF 18: Rhodococcus erythropolis AN12 ORF 18 chnB monooxygenase, protein SEQ ID NO:42, expressed in E. coli (protein, Rhodococcus erythropolis AN12) MSSRVNDGHIAIIGTGFSGLCMAIELKKKGIDDFVLYERADDVGGTWRDNTYPGAACDVPSVLYSYSFAQNPNWTRIFPPWSELLDYLRSVAAQYDLLPHIRFGVEVSEMRFDEDRLRWNIQFASGESVTAAVVVNGSGGLSNPYIPQLPGLESFEGAAFHSAKWRHDLDMSGRRVAVIGSGASAIQFVPEIAPHTETLHVFQRSPNWVMPRGDAALSPATRERFSRRPYRQRWLRWRTYWAFEKLASAFLGNRKLVEQYRSQALANLQQQVPDSDLRQKVTPDYDPGCKRRLISDDWYPALQRENVHLNTSGVSEIRPHSIIDSEGAEHEVDTLIFATGFQATSFLAPMKVFGREGVELSDSWREGAATKLGLASAAFPNLWFLNGPNTGLGHNSIIFMIEAQARYIASAVQYMRRKSITALELDRTVQTGSYAATQERMRRTVWASGGCDSWYQSADGRIDTLWPASTIEYWLRTRLFRKSDFHALTTGKG | Detected |
| ORF 16: Rhodococcus erythropolis AN12 ORF 16 chnB monooxygenase, protein SEQ ID NO:38, expressed in E. coli (protein, Rhodococcus erythropolis AN12) VKLPEHVETLIVGAGFAGMGLAARMLRDNRTADVVLIERGADIGGTWRDNTYPGCACDVPTALYSYSFAPSADWSHTFARQPEIYDYLKKVAADTGIGDRVILNCELEAAVWDEDAALWRVRTSLGSLTVKALVAATGALSTPKIPDFPGLDQFSGTTFHSATWNHEHELRGERVAVIGTGASAVQFVPEIADPAAHVTVFQRTPAWVIPRMDRTLPAAQKAVYSRIPATQKVVRGAVYGFRELLGAAMSHATWVLPAFEAAARLHLRRQVKDPELRRKLTPDFTIGCKRMLLSNDWLRTLDRADVSLVDSGLVSVTEGGVVDGHGVEHKVDTIIFATGFTPTEPPVAHLITGKRGETLAAHWNGSPNAYKGTAVSGFPNLFLMYGPNTNLGHSSIVYMLESQAEYVNDALNTMKRERLDALDVNESVQVHYNKGIQHELQHTVWNKGGCSSWYIDPEGRNSVQWPTFTFKFRSLLEHFDRENYSARKIESVQA | Detected |
| ORF 12: Rhodococcus erythropolis AN12 ORF 12 chnB monooxygenase, protein SEQ ID NO:30, expressed in E. coli (protein, Rhodococcus erythropolis AN12) VNNESDHFEVVIIGGGISGIGAAIHLQRLGIDNFALLEKADSLGGTWRANTYPGCACDVPSGLYSYSFAANPDWTRLFAEQPEIREYIENTAGTHGVDKHVRFGVEMLSARWDASQSLWKITTSSGELTARFVIAAAGPWNEPLTPAIPGLEAFEGEVFHSSQWNHDYDLTGKLVAVVGTGASAVQFVPRIVSQVSALHLYQRTAQWVLPKPDHYVPRIERSVMRFVPGAQKALRSIEYGIMEALGLGFRNPWILRIVQKLGSAQLRLQVRDPKLRKALTPDYTLGCKRLLMSNSYYPALGKPNVSVHANAVEQIRGNTVIGADGVEAEVDAIIFGTGFHILDMPIASKVFDGEGRSLDDHWQGSPQAYFGSAVSGFPNAFILLGPSLGTGHTSAFMILEAQLNYVAQAIGHARRHGWQTIDVREEVQAAFNSQVQEALGTTVYNAGGCESYFFDVNGRNSFNWPWSSGAMRRRLRDFDPYAYNHTSNPESDNTPPEPTPSEPTPSEPTPSEPTTSPEPEYTA | Detected |
| ORF 8: Rhodococcus erythropolis AN12 ORF 8 chnB monooxygenase, protein SEQ ID NO:22, expressed in E. coli (protein, Rhodococcus erythropolis AN12) MSTEGKYALIGAGPSGLAGARNLDRAGIAFDGFESHDDVGGLWDIDNPHSTVYESAHLISSKGTTAFAEFPMADSVADYPSHIELAEYFRDYADTHDLRRHFAFGTTVIDVLPVDSLWQVTTRSRSGETSVARYRGVIIANGTLSKPNIPTFRGDFTGTLMHTSEYRSAEIFRGKRVLVIGAGNSGCDIAVDAVHQAECVDLSVRRGYYFVPKYLFGRPSDTLNQGKPLPPWIKQRVDTLLLKQFTGDPVRFGFPAPDYKIYESHPVVNSLILHHIGHGDVHVRADVDRFEGKTVRFVDGSSADYDLVLCATGYHLDYPFIAREDLDWSGAAPDLFLNVASRRHDNLFVLGMVEASGLGWQGRYQQAELVAKLITARTEAPAAAREFSAAAAGPPPDLSGGYKYLKLGRMAYYVNKDAYRSAIRRHIGLLDAALTKGGQ | Detected |
| ORF 17: Rhodococcus erythropolis AN12 ORF 17 chnB monooxygenase, protein SEQ ID NO:40, expressed in E. coli (protein, Rhodococcus erythropolis AN12) MTQHVDVLIIGAGLSGIGAACHLIREQTGSTYAILERRENIGGTWDLFKYPGIRSDSDMLTFGFGFRPWIGTKVLADGASIRDYVEETAKEYGVTDHINFGRKVVAMDFDRTAAQWSVTVLVEATGETETWTANVLVGACGYYNYDKGYRPAFPGEDDFRGQIVHPQHWPEDLDYTGKKVVVIGSGATAITLIPSMAPTAGHVTMLQRSPTWIQALPSEDPVAKGLKLARVPDQIAYKIGRARNIALQRASFQLSRTNPKLAKKLFLAQIRLQLGKNVDLRHFTPSYNPWDQRLCVVPNGDLFKVLKSGKADIVTDRIATFTEKGIVTESGREIEADVIVTATGLNVQILGGATMSIDGEPVKLNETVAYKSVLYSDIPNFLMILGYTNASWTLKADLAASYLCRVLKIMRDRSYTTFEVHAEPEDFAEESLMGGALTSGYIQRGDGEMPRQGARGAWKVVNNYYRDRKLMHDAEIEDGVLQFSKVDIAVVPDSKVASA | Detected |
| ORF 19: Rhodococcus erythropolis AN12 ORF 19 chnB monooxygenase, protein SEQ ID NO:44, expressed in E. coli (protein, Rhodococcus erythropolis AN12) MTTQKALTTVDAIVIGAGFGGIYAVHKLANELGLTTVGFDKADGPGGTWYWNRYPGALSDTESHVYRFSFDRDLLQDGTWKHTYTTQPEILEYLEDVVSRFDLRRHFHFGTAVESAVYLEDEQLWEVTTDTGEIYRATYVVNAVGLLSAINRPDLPGLETFEGETIHTAAWPEGKDLTGRRVGVIGTGSTGQQVITALAPTVEHLTVFVRTPQYSVPVGKRAVTDEQIDAVKADYENIWTQVKRSSVAFGFEESTVPAMSVSAEERLRVYEEAWEQGGGFRFMFGTFGDIATDEEANETAASFIRSKITAMIEDPETARKLTPTGLFARRPLCDDGYFQVFNRPNVEAVAIKENPIREITAKGVVTEDGVLHKLDVLVLATGFDAVDGNYRRMTISGRGGLNINDHWDGQPTSYLGIATANFPNWFMVLGPNGPFTNLPPSIETQVEWISDTIGYVERTGVRAIEPTPEAESAWTATCTDIANMTVFTKVDSWIFGANVPGKKPSVLFYLGGLGNYRAVLADVTEGGYQGFALKTADTVDA | Detected |
| ORF 11: Rhodococcus erythropolis AN12 ORF 11 chnB monooxygenase, protein SEQ ID NO:28, expressed in E. coli (protein, Rhodococcus erythropolis AN12) MSPSPLPSVCIIGAGPTGITTAKRMKEFGIPFDCYEASDEVGGNWYYKNPNGMSACYQSLHIDTSKWRLAFEDFPVSADLPDFPHHSELFQYFKDYVEHFGLRESIIFNTSVVAAERDANGLWTVTRSDGEVRTYDVLMVCNGHHWDPNIPDYPGEFDGVLMHSHSYNDPFDPIDMRGKKVVVVGMGNSGLDIASELGQRYLADKLIVSARRGVWVLPKYLGGVPGDKLITPPWMPRGLRLFLSRRFLGKNLGTMEGYGLPKPDHRPFEAHPSASGEFLGRAGSGDITFKPAITKLDGKQVHFADGTAEDVDVVVCATGYNISFPFFDDPNLLPDKDNRFPLFKRMMKPGIDNLFFMGLAQPMPTLVNFAEQQSKLVAAYLTGKYQLPSANEMQEITKADEAYFLAPYYKSPRHTIQLEFDPYVRNMNKEIAKGTKRAAASGNKLPVAARAAAHELEKADRA | Detected |
